Here are results for 40 sequences from the nanobody polyreactivity screen of Harvey et al. (2022).

The series in a line: yeast display, Sf9 membrane polyspecificity reagent, FACS + sequencing; frameworks hold sequencing errors. The method in brief:
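A nanobody's polyreactivity label depends on the gate it was sorted from. Yeast display cells were stained with 10% biotinylated, detergent-solubilized Sf9 membrane reagent for 1 hour at 4 °C, enriched on streptavidin microbeads and sorted by FACS. The low and high (top ~1%) gates were set on anti-HA fluorescence for expression and streptavidin fluorescence for reagent binding.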
As for “QVQLVESGGGLVQAGGSLRLSCAASGFIFYYYAMGWYRQAPGKERELVAAISTSGGSTYYADSVKGRFTISRDNAKNTVYLQMNSLKPEDTAVYYCAAKIIGRPRTTDRYDYWGQGTQVTVSS”, the “polyreactivity (PSR sort gate)” value is reported as “low polyreactivity”. As for “QVQLVESGGGLVQAGGSLRLSCAASGFIFYYYAMGWYRQAPGKERELVAAISWSGARTYYADSVKGRFTISRDNAKNTVYLQMNSLKPEDTAVYYCNAVAFYPRSSRSWRLDYWGQGTQVTVSS”, the “polyreactivity (PSR sort gate)” value is listed as “high polyreactivity”. Then “QVQLVESGGGLVQAGGSLRLSCAASGFIFYYYAMGWYRQAPGKERELVAAISWSGGITYYADSVKGRFTISRDNAKNTVYLQMNSLKPEDTAVYYCNAVSSGDMDYWGQGTQVTVSS”, with “high polyreactivity”. Turning to “QVQLVESGGGLVQAGGSLRLSCAASGFIFYYYAMGWYRQAPGKERELVAAISWSGGRTYYADSVKGRFTISRDNAKNTVYLQMNSLKPEDTAVYYCAAVGYSKRYIYWGQGTQVTVSS”, the “polyreactivity (PSR sort gate)” value is recorded as “high polyreactivity”. With “QVQLVESGGGLVQAGGSLRLSCAASGFIFYYYAMGWYRQAPGKERELVAAITQGGGSTYYADSVKGRFTISRDNAKNTVYLQMNSLKPEDTAVYYCAAVKRVYAHSRAFSSDFYYWGQGTQVTVSS” the entry was “high polyreactivity”; with “QVQLVESGGGLVQAGGSLRLSCAASGFIFYYYDMGWYRQAPGKERELVAAITYDGGSTYYADSVKGRFTISRDNAKNTVYLQMNSLKPEDTAVYYCNAVYGQYYDYWGQGTQVTVSS”, “low polyreactivity”; with “QVQLVESGGGLVQAGGSLRLSCAASGFIFYYYTMGWYRQEPGKEREFVAAITYSGGRTYYADSVKGRFTISRDNAKNTVYLQMNSLKPEDTAVYYCAVALFETGHYYWGQGTQVTVSS”, “high polyreactivity”.

With “QVQLVESGGGLVQAGGSLRLSCAASGFIIANNAMGWYRQAPGKERELVASIRTRGGSTYYADSVKGRFTISRDNAKNTVYLQMNSLKPEDTAVYYSAARPFPRRYDYWGQGTQVTVSS”, the “polyreactivity (PSR sort gate)” value is on record as “low polyreactivity”. With “QVQLVESGGGLVQAGGSLRLSCAASGFIIAYYAMGWYRQAPGKEREWVAAITSDGGSTYYADSVKGRFTISRDNAKNTVYLQMNSLKPEDTAVYYCAAQGYPYGRLWGGYYRYDYWGQGTQVTVSS” the entry was “high polyreactivity”; with “QVQLVESGGGLVQAGGSLRLSCAASGFIIGFNAMGWYRQAPGKERELVAAISGSGGRTYYADSVKGRFTISRDNAKNTVYLQMNSLKPEDTAVYYCAKVGYKSPYLYSQHYTGFGYWGQGTQVTVSS”, “high polyreactivity”. As for “QVQLVESGGGLVQAGGSLRLSCAASGFIIGRNAMGWYRQAPGKERELVAAMSTSGASTYYADSVKGRFTISRDNAKNTVYFQMNSLKPEDTAVYYCAARRPVWDGRGSGYDYWGQGTQVTVSS”, the “polyreactivity (PSR sort gate)” value was “low polyreactivity”. With “QVQLVESGGGLVQAGGSLRLSCAASGFIIGVYAMGWYRQAPGKEREFVAAISLTGGSTSYADSVKGLFTISRDNAKNTVYLQMNSLKREDTAVYYCAADAWFWVRWGENYWGQGTQVTVSS” the entry was “low polyreactivity”; with “QVQLVESGGGLVQAGGSLRLSCAASGFIIGYYAMGWYRQAPGKVREFVAAISRSGGSTYYADSVKGRFTISRDNAKNTVYLQMNSLKPEDTSVYYCAADYQKTYTSKFNYWGQGTQVTVSS”, “high polyreactivity”. In the case of “QVQLVESGGGLVQAGGSLRLSCAASGFIIKVYAMGWYRQAPGKERELVAAITWSGGSTYYADSVKGRFTISRDNAKNTVYLQMNSLKPEDTAVYYCAADTYYPDWITYPQGDFDYWGQGTQVTVSS”, the “polyreactivity (PSR sort gate)” value is given as “low polyreactivity”.

Turning to “QVQLVESGGGLVQAGGSLRLSCAASGFIIKYYAMGWYRQAPGKERELVAAIDGSSASTYYADSVKGRFTISRDNAKNTVYLQMNSLKPEDTPVYYCAVARLRRGGVQYGYWGQGTQVTVSS”, the “polyreactivity (PSR sort gate)” value is reported as “high polyreactivity”. With “QVQLVESGGGLVQAGGSLRLSCAASGFIIPGYAMGWYRQAPGKEREFVAAISRSGGSTYYADSVKGRFTISRDNAKNTVYLQMNSLKPEDSAVYYCATRARGYTGYDYWGQGTQVTVSS” the entry was “high polyreactivity”; with “QVQLVESGGGLVQAGGSLRLSCAASGFIIRGNVMGWYRQAPGKERELVAAISGRGGSTYYADSVKGRFTISRDNAKNTVYLQMNSLKPEDTAVYYCNAAGLYNSRLDYWGQGTQVTVSS”, “high polyreactivity”; with “QVQLVESGGGLVQAGGSLRLSCAASGFIIRRYAMGRYRQAPGKEREMVASIDRSGASTYYADSVKGRLTISRDNAKYTVYLQMNSLKPEDTAVYYCNKAFAWTGWYSVQGDYWGQGTQVTVSS”, “high polyreactivity”. For the sequence “QVQLVESGGGLVQAGGSLRLSCAASGFIIVYYAMGWYRQAPGKERELVAGISSGGSTYYADSVKGRFTISRDNAKNTVYLQMNSLKPEDTAVYYCATRYLYRGYSYFAYDYWGQGTQVTVSS”, the “polyreactivity (PSR sort gate)” value is given as “low polyreactivity”.

With “QVQLVESGGGLVQAGGSLRLSCAASGFILAQNAKGWSRQAPGKEWELVAAISRRGGRTSYADSVKGRFTISRDNAKNTVYLQMNSLKPEDTAVYYCAALPPRASSDAGGWYVAEDYWGQGTQVTVSS”, the “polyreactivity (PSR sort gate)” value is listed as “high polyreactivity”.

As to “QVQLVESGGGLVQAGGSLRLSCAASGFILATNAMGWSRQAPGKERELVAAISYAGGSTNYADSVKGRFTISRDNAKNTVYVPMNSLKPEDTAVYYCNAGGTVIWAWYCPVYSWGHGTQVTVSS”, the “polyreactivity (PSR sort gate)” value was “low polyreactivity”.

“QVQLVESGGGLVQAGGSLRLSCAASGFILDTYGMGWYRQAPGKERELVAAISQSDVSTYYADSVKGRFTISRDNAKNTVYLQMNSLKPEDTAVYYCAADRGGLRWFWQVLYDYWGQGTQVTVSS”: the “polyreactivity (PSR sort gate)” value was “low polyreactivity”. Then “QVQLVESGGGLVQAGGSLRLSCAASGFILGYNAMGLYRQAPGKERELVAAINGGSGSTYYADSVKGRFTISRDNAKNTVYLQMNSLKPEDTAVYYCAAEVTWAFFYERDYWGQGTQVTVSS”, with “high polyreactivity”; and “QVQLVESGGGLVQAGGSLRLSCAASGFILGYNAMGWYRQEPGKERELVADITFSGGGTNYADSVKGRFTISRDNAKNTVYLQMNSLKPEDTAVYYCNAAAFSQLRVRYDYWGQGTQVTVSS”, with “low polyreactivity”; and “QVQLVESGGGLVQAGGSLRLSCAASGFILKFYAMGWYRQAPGKERELVAAISRRGGSTYYADSVKGRFTISRDNAKNTVYLQMNSLKPEDTAVYHCAKDGTTSRVSDSSDYWGQGTQVTVSS”, with “high polyreactivity”. With “QVQLVESGGGLVQAGGSLRLSCAASGFILKYYAMGWYRQAPGKERELVAAISVRGGSTYYADSVKGRFTISRDNAKNTVYLQMNSLKPEDTAVYYCAARHRYGGAFVDYDYWGQGTQVTVSS” the entry was “high polyreactivity”; with “QVQLVESGGGLVQAGGSLRLSCAASGFILLDNAMGWYRQAPGKEREFVASINISGDRTFYADSVKGRFTISRDNAKNTDYLQMNSLKPEDTAVYYCNALPSEPMVYWGQGTQVTVSS”, “low polyreactivity”; with “QVQLVESGGGLVQAGGSLRLSCAASGFILLDNGMGWYREAPGKERELVAAITYSGDTTYYADSVKGRFTISRDNAKNTVYLQMNSLKPEDTAVYYCNADNDKWTTGHDYWGQGTQVTVSS”, “low polyreactivity”. With “QVQLVESGGGLVQAGGSLRLSCAASGFILLQYVMGWYRQAPGKERELVAAITSGGSTYYADSVKGRFTISRDNAKYTVYLQMNSLKPEDTAVYYCSTDVADNTFYALYGYDYWGQGTQVTVSS” the entry was “low polyreactivity”. For the sequence “QVQLVESGGGLVQAGGSLRLSCAASGFILLYYAMGWYRQAPGKERELVAANSWTGGRTYYADSVKGRFTISRDNAKNTVYLQMTSLKPEDSAVYYCNTDKFFGRKYGYWGQGTQVTVSS”, the “polyreactivity (PSR sort gate)” value is “low polyreactivity”. With “QVQLVESGGGLVQAGGSLRLSCAASGFILNKNVMGWYRQAPGKERELVAAITGSGGRTYYADSVKGRFSISRDNAKNTVYLQMNSLKPEDTAVYYCAARRPLVRYIMGYWGQGTQVTVSS” the entry was “high polyreactivity”; with “QVQLVESGGGLVQAGGSLRLSCAASGFILPWYVMGWYRQAPGKERELVAAISGTGGSTYYADSVKGRFTISRDNAKNTVYLQMNSLKPEDTAVYYCAAGAFYAGYYWEFYYWGQGTQVTVSS”, “high polyreactivity”.

Turning to “QVQLVESGGGLVQAGGSLRLSCAASGFILTDNAKGWNRQAPGKERELVAAINSGGSTYYADSVKGRFTISRDNAKNTVYLQMNSLKPEDTEVYYCAADYSTWLRAYDYWGQGTQVTVSS”, the “polyreactivity (PSR sort gate)” value is on record as “low polyreactivity”. Then “QVQLVESGGGLVQAGGSLRLSCAASGFILTLYAMGWYRQAPGKERELVASISRRGGSTYYADSVKGRFTISRDNAKNTVYLQMNSLKPEDTAVYYCNAQGYRRGYDYWGQGTQVTVSS”, with “high polyreactivity”.

For the sequence “QVQLVESGGGLVQAGGSLRLSCAASGFILYGNTMGWYRHAPGKDRELVAAISWSGGNTRYADSVKGRFTISRDNAKNTVYLQMNSLKQDDTAVYYCAAYSKYVLSIRRDYWGQGTQVTVSS”, the “polyreactivity (PSR sort gate)” value is recorded as “low polyreactivity”. Take “QVQLVESGGGLVQAGGSLRLSCAASGFILYSYAMGWYRQAPGKERELVADITGTGGRTYYADSVKGRFTISRDNAKNTVYLQMNSLKPEDTAVYYCNKGPFFVFRTTRYYEYDYWGQGTQVTVSS”: the “polyreactivity (PSR sort gate)” value was “low polyreactivity”. With “QVQLVESGGGLVQAGGSLRLSCAASGFIMQYNAMGRYIQAPRKERELVAAITRSGVSTHYADSVKGRYTISRDNAKNTVYLQMISLKPEDTAVYYCARTGQSLYSRYYYWGQGTQVTVSS” the entry was “low polyreactivity”. “QVQLVESGGGLVQAGGSLRLSCAASGFIRTAYAMGWYRQAPGKERELVAAIDWIGGSTYYADSVKGRFTISRDNAKNTVYLQMNSLKPEDTAVYYCAAVRYYWGQGTQVTVSS”: the “polyreactivity (PSR sort gate)” value is on record as “low polyreactivity”. With “QVQLVESGGGLVQAGGSLRLSCAASGFISAYYAMGWYRQAPGKEMELVAAISWNGGRTFYADSVKGRFTISRDNAKNTVYLQMNSLKPEDTAVYYCAARYNGYANPYYYWGQGTQVTVSS” the entry was “high polyreactivity”; with “QVQLVESGGGLVQAGGSLRLSCAASGFISDYYAMGWDRQAPGKERELVADISSGGSTYYADSVKGRCTISRDNAKNTVYLQMNSLKPEDTAVYYCNAGDYFVRFVYYWDDERYDYWGQGTQVTVSS”, “low polyreactivity”.
